Test results: US20250003951A1 (OXFORD UNIVERSITY INNOVATION, published 2025)

Key:
Test in all cases: cell-based or functional assay
OX289-040 = molecular target: T1, OX289-040 (human)
T1 peptide: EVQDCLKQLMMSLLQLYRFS

OX885-560 = molecular target: T2, OX885-560 (human)
T2 peptide: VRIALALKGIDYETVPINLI

OX885-559 = molecular target: T3, OX885-559 (human)
T3 peptide: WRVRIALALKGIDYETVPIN

OX628-308 = molecular target: T4, OX628-308 (human)
T4 peptide: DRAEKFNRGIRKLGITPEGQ

OX628-309 = molecular target: T5, OX628-309 (human)
T5 peptide: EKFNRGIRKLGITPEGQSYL

OX289-009 = molecular target: T6, OX289-009 (human)
T6 peptide: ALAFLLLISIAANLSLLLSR

OX289-067 = molecular target: T7, OX289-067 (human)
T7 peptide: VATFPVYTMVAIPIVCKD

OX289-284 = molecular target: T8, OX289-284 (human)
T8 peptide: GETGMFSLSTIRGHQYATY

B1: OX289 Peptide 40 clone 1 TCR (TCR, V domains shown)
V domain 1: NSVTQMEGPVTLSEEAFLTINCTYTATGYPSLFWYVQYPGEGLQLLLKATKADDKGSNKGFEATYRKETTSFHLEKGSVQVSDSAVYFCALIPTGGGNKLTFGTGTQLKVEL
V domain 2: AVVSQHPSWVICKSGTSVKIECRSLDFQATTMFWYRQFPKQSLMLMATSNEGSKATYEQGVEKDKFLINHASLTLSTLTVTSAHPEDSSFYICSARLAHSGTNTGELFFGEGSRLTVLE
For B1, the “Clone size (percent repertoire), IFNγ+ sorted T cells after peptide stimulation” value (from here on “Clone size (percent repertoire)”) (OX289-040) was 85.2 % of repertoire.

B2: OX885 Peptides 559/560 clone 1 TCR (TCR, V domains shown)
V domain 1: GIQVEQSPPDLILQEGANSTLRCNFSDSVNNLQWFHQNPWGQLINLFYIPSGTKQNGRLSATTVATERYSLLYISSSQTTDSGVYFCAARRVDNNNDMRFGAGTRLTVKP
V domain 2: DARVTQTPRHKVTEMGQEVTMRCQPILGHNTVFWYRQTMMQGLELLAYFRNRAPLDDSGMPKDRFSAEMPDATLATLKIQPSEPRDSAVYFCASGLAQPQHFGDGTRLSILE
With B2 the “Clone size (percent repertoire)” value (OX885-560) was 96.5 % of repertoire and the “Clone size (percent repertoire)” value (OX885-559) was 96.5 % of repertoire.

B3: OX885 Peptides OX628-308/309 clone 2 TCR (TCR, V domains shown)
V domain 1: AQSVTQLDSQVPVFEEAPVELRCNYSSSVSVYLFWYVQYPNQGLQLLLKYLSGSTLVKGINGFEAEFNKSQTSFHLRKPSVHISDTAEYFCAVSGVLTGGGNKLTFGTGTQLKVEL
V domain 2: DAGITQSPRYKITETGRQVTLMCHQTWSHSYMFWYRQDLGHGLRLIYYSAAADITDKGEVPDGYVVSRSKTENFPLTLESATRSQTSVYFCASSEGTVSNQPQHFGDGTRLSILE
In the case of B3, the “Clone size (percent repertoire)” value (OX628-308) is reported as 16.2 % of repertoire and the “Clone size (percent repertoire)” value (OX628-309) is reported as 16.2 % of repertoire.

B4: OX289 Peptide 9 clone 1 TCR (TCR, V domains shown)
V domain 1: RKEVEQDPGPFNVPEGATVAFNCTYSNSASQSFFWYRQDCRKEPKLLMSVYSSGNEDGRFTAQLNRASQYISLLIRDSKLSDSATYLCVVDFYTSGTYKYIFGTGTRLKVLA
V domain 2: GAVVSQHPSRVICKSGTSVKIECRSLDFQATTMFWYRQFPKQSLMLMATSNEGSKATYEQGVEKDKFLINHASLTLSTLTVTSAHPEDSSFYICSARDREAAGYGYTFGSGTRLTVVE
B4 was tested, and the “Clone size (percent repertoire)” value (OX289-009) was 91.1 % of repertoire.

B5: OX289 Peptide 67 clone 1 TCR (TCR)
TCR alpha 1: QLLEQSPQFLSIQEGENLTVYCNSSSVFSSLQWYRQEPGEGPVLLVTVVTGGEVKKLKRLTFQFGDARKDSSLHITAAQPGDTGLYLCAGLDDKIIFGKGTRLHILPNIQNPDPAVYQLRD
TCR alpha 2: GIQVEQSPPDLILQEGANSTLRCNFSDSVNNLQWFHQNPWGQLINLFYIPSGTKQNGRLSATTVATERYSLLYISSSQTTDSGVYFCAVAGSNYQLIWGAGTKLIIKPDIQNPDPAVYQLRD
TCR beta: EAGVAQSPRYKIIEKRQSVAFWCNPISGHATLYWYQQILGQGPKLLIQFQNNGVVDDSQLPKDRFSAERLKGVDSTLKIQPAKLEDSAVYLCASSDPISGRGDEQFFGPGTRLTVLEDLKNVFPPEVAVFEPS
With B5 the “Clone size (percent repertoire)” value (OX289-067) was 81.1 % of repertoire.

B6: OX289 Peptide 284 clone 1 TCR (TCR)
TCR alpha: RKEVEQDPGPFNVPEGATVAFNCTYSNSASQSFFWYRQDCRKEPKLLMSVYSSGNEDGRFTAQLNRASQYISLLIRDSKLSDSATYLCVVNKATSGTYKYIFGTGTRLKVLANIQNPDPAVYQLRD
TCR beta 1: AVVSQHPSWVICKSGTSVKIECRSLDFQATTMFWYRQFPKQSLMLMATSNEGSKATYEQGVEKDKFLINHASLTLSTLTVTSAHPEDSSFYICSARDREAAGYGYTFGSGTRLTVVEDLNKVFPPEVAVFEPS
TCR beta 2: AVVSQHPSWVICKSGTSVKIECRSLDFQATTMFWYRQFPKQSLMLMATSNEGSKATYEQGVEKDKFLINHASLTLSTLTVTSAHPEDSSFYICSARLAHSGTNTGELFFGEGSRLTVLEDLKNVFPPEVAVFEPS
In the case of B6, the “Clone size (percent repertoire)” value (OX289-284) is reported as 96 % of repertoire.
